Test results as given in article PMC2806001.

Molecular target: T1, Peroxiredoxin 1 (Prx1) WT, recombinant (mouse), P35700
T1 chain: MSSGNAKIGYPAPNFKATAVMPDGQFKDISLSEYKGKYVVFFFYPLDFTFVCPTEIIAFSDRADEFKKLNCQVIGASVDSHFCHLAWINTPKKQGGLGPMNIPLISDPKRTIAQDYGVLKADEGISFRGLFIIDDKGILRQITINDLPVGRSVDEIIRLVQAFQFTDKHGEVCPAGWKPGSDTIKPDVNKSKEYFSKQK
Experiment: native gel or EMSA; BN-PAGE of purified recombinant proteins incubated for 1 hour at room temperature (20 μg p66CH2CB with 40 μg Prx1 WT or 20 μg Prx1-Cys83Ser); bands cut out and separated in a second, denaturing SDS-PAGE dimension
Conditions: remark: other sources report otherwise

B1: Peroxiredoxin 1 (Prx1) WT, recombinant, P35700 1-199 (enzyme)
chain: T1 chain
stoichiometry N: 10
